First the molecules themselves.
B1: Stage VI sporulation protein D (Bacillus subtilis), P37963 (parent)
chain: MPQNHRLQFSVEESICFQKGQEVSELLSISLDPDIRVQEVNDYVSIIGSLELTGEYNIDQNKHTEEIYTDKRFVEQVRKREDGSAELTHCFPVDITIPKNKVSHLQDVFVFIDAFDYQLTDSRILTIQADLAIEGLLDDTQDKEPEIPLYEAPAAFREEELSEPPAHSVVEEPGASSAEEAVLQHEPPAEPPELFISKAGLREELETEKAESEPPESVASEPEAREDVKEEEESEELAVPETEVRAESETEESEPEPDPSEIEIQEIVKAKKETAEPAAAIADVREEADSPAETELREHVGAEESPALEAELHSETVIAKEKEETTVSPNHEYALRQEAQNEEAAQSDQADPALCQEEAEPDEALESVSEAALSIEDSRETASAVYMENDNADLHFHFNQKTSSEEASQEELPEPAYRTFLPEQEEEDSFYSAPKLLEEEEQEEESFEIEVRKTPSAEEPKEETPFQSFQLPESSETERKETDAVPRVAPAAETKEPQTKESDNSLYLTKLFTKEADEFSRMKICIVQQEDTIERLCERYEITSQQLIRMNSLALDDELKAGQILYIPQYKNSHA
partner: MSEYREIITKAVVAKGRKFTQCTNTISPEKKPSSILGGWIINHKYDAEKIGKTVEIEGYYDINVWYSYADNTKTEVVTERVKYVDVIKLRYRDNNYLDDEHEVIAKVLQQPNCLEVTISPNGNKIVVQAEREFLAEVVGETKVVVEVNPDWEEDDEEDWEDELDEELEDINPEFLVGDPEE

The variants in the first assay derive from B1. Particulars: with cote_bacsu cotE.
Consider I127A, for which the “effect of a mutation on the interaction” value is reported as “decreasing interaction strength”. The same measure, in the same setting: with L131A the entry was “decreasing interaction strength”.

A further assay covers variants of B1. The conditions noted are these: with cote_bacsu cotE. The source holds these as a separate data set.
With L131A, the “effect of a mutation on the interaction” value is “disrupting interaction”.
